T1: EsCas13d, nuclease-dead (Eubacterium siraeum, UniProt B0MS50, R295A;H300A;R849A;H854A)
T1 sequence: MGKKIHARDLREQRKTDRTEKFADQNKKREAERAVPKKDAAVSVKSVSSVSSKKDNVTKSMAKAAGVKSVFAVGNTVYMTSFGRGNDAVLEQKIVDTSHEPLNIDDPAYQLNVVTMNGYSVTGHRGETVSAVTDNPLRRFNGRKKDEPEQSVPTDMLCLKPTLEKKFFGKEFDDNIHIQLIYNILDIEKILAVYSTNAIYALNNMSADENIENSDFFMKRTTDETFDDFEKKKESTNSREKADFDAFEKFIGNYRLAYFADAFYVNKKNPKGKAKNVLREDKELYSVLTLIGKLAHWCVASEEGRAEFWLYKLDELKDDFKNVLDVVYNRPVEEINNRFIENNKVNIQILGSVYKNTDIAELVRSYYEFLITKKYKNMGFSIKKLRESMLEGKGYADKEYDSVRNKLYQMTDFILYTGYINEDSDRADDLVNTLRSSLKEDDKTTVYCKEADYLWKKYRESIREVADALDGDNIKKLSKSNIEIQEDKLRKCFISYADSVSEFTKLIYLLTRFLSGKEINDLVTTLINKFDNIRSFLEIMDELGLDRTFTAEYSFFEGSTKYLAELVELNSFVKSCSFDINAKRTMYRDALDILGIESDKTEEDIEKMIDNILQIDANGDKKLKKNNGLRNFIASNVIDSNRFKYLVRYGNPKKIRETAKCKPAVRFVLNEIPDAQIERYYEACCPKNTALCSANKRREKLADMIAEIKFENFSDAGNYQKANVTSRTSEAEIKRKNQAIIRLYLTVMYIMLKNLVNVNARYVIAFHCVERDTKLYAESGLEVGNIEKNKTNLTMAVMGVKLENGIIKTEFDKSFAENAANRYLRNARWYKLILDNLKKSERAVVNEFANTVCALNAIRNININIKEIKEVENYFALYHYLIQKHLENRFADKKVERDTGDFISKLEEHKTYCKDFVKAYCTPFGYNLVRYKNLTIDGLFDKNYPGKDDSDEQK

B1: target 2 MT 5'PFS GAC 3'PFS AUU (mixed)
RNA 1: CACCCGUGCAAAAUUGCAGGGGUCUAAAACCUUCUCCAAAUUGUUUCAUCCU
RNA 2: GGGAAUGGAUCCACAUCUACGAAUUCGACAGGAUGAAACAAUUUGGAGAAGAUUAGAUCGGAAGAGCACACGU
B2: target 2 MT 5'PFS GAC 3'PFS AUG (mixed)
RNA 1: CACCCGUGCAAAAUUGCAGGGGUCUAAAACCUUCUCCAAAUUGUUUCAUCCU
RNA 2: GGGAAUGGAUCCACAUCUACGAAUUCGACAGGAUGAAACAAUUUGGAGAAGAUGAGAUCGGAAGAGCACACGU
B3: target 2 MT 5'PFS GAU 3'PFS AAU (mixed)
RNA 1: CACCCGUGCAAAAUUGCAGGGGUCUAAAACCUUCUCCAAAUUGUUUCAUCCU
RNA 2: GGGAAUGGAUCCACAUCUACGAAUUCGAUAGGAUGAAACAAUUUGGAGAAGAAUAGAUCGGAAGAGCACACGU
B4: target 2 MT 5'PFS GUC 3'PFS AGC (mixed)
RNA 1: CACCCGUGCAAAAUUGCAGGGGUCUAAAACCUUCUCCAAAUUGUUUCAUCCU
RNA 2: GGGAAUGGAUCCACAUCUACGAAUUCGUCAGGAUGAAACAAUUUGGAGAAGAGCAGAUCGGAAGAGCACACGU
B5: target 2 MT 5'PFS GAU 3'PFS AAA (mixed)
RNA 1: CACCCGUGCAAAAUUGCAGGGGUCUAAAACCUUCUCCAAAUUGUUUCAUCCU
RNA 2: GGGAAUGGAUCCACAUCUACGAAUUCGAUAGGAUGAAACAAUUUGGAGAAGAAAAGAUCGGAAGAGCACACGU
B6: target 2 MT 5'PFS CCU 3'PFS UAG (mixed)
RNA 1: CACCCGUGCAAAAUUGCAGGGGUCUAAAACCUUCUCCAAAUUGUUUCAUCCU
RNA 2: GGGAAUGGAUCCACAUCUACGAAUUCCCUAGGAUGAAACAAUUUGGAGAAGUAGAGAUCGGAAGAGCACACGU
B7: target 2 MT 5'PFS GUC 3'PFS AGA (mixed)
RNA 1: CACCCGUGCAAAAUUGCAGGGGUCUAAAACCUUCUCCAAAUUGUUUCAUCCU
RNA 2: GGGAAUGGAUCCACAUCUACGAAUUCGUCAGGAUGAAACAAUUUGGAGAAGAGAAGAUCGGAAGAGCACACGU
B8: target 2 MT 5'PFS GAC 3'PFS AUC (mixed)
RNA 1: CACCCGUGCAAAAUUGCAGGGGUCUAAAACCUUCUCCAAAUUGUUUCAUCCU
RNA 2: GGGAAUGGAUCCACAUCUACGAAUUCGACAGGAUGAAACAAUUUGGAGAAGAUCAGAUCGGAAGAGCACACGU
B9: target 2 MT 5'PFS GAU 3'PFS AAC (mixed)
RNA 1: CACCCGUGCAAAAUUGCAGGGGUCUAAAACCUUCUCCAAAUUGUUUCAUCCU
RNA 2: GGGAAUGGAUCCACAUCUACGAAUUCGAUAGGAUGAAACAAUUUGGAGAAGAACAGAUCGGAAGAGCACACGU
B10: target 2 MT 5'PFS GAU 3'PFS AAG (mixed)
RNA 1: CACCCGUGCAAAAUUGCAGGGGUCUAAAACCUUCUCCAAAUUGUUUCAUCCU
RNA 2: GGGAAUGGAUCCACAUCUACGAAUUCGAUAGGAUGAAACAAUUUGGAGAAGAAGAGAUCGGAAGAGCACACGU
B11: target 2 MT 5'PFS GUC 3'PFS AGG (mixed)
RNA 1: CACCCGUGCAAAAUUGCAGGGGUCUAAAACCUUCUCCAAAUUGUUUCAUCCU
RNA 2: GGGAAUGGAUCCACAUCUACGAAUUCGUCAGGAUGAAACAAUUUGGAGAAGAGGAGAUCGGAAGAGCACACGU
B12: target 1 C7U,A18G (mixed)
RNA 1: CACCCGUGCAAAAAUGCAGGGGUCUAAAACUGAGCGGAUAACCUCUCUAUGG
RNA 2: GGGAAUGGAUCCACAUCUACGAAUUCGUACCAUGGAGAGGUUAUUCGCUCACCGAGAUCGGAAGAGCACACGU
B13: target 1 insA 3' of 7,insU 3' of 4 (mixed)
RNA 1: CACCCGUGCAAAAAUGCAGGGGUCUAAAACUGAGCGGAUAACCUCUCUAUGG
RNA 2: GGGAAUGGAUCCACAUCUACGAAUUCGUACCAUAGAGAGGUUAUCACGCUUCACCGAGAUCGGAAGAGCACACGU

Experimental findings from paper PMC10786891, “Massively parallel profiling of RNA-targeting CRISPR-Cas13d” are described below.

The data set addresses T1, EsCas13d, nuclease-dead. The data set can be described thus: crRNA (strand 1, pre-loaded); Mg2+; 40 mM Tris-HCl pH 7.5, 150 mM NaCl, 6 mM MgCl2, 1 mM DTT, 0.1% Tween-20, 0.2 mg/ml BSA; 25 C; 10 min per concentration, then washed. The note with it: tags: His6-TwinStrep-SUMO cleaved; N-terminal SNAP kept (SNAP-Surface 488); label: 3' end held by stalled T7 RNA polymerase.
Usually Kd stands for the constant that tells how readily two partners part at equilibrium. Low readings indicate a tighter complex, high ones a looser complex. The molecule B1 displayed a Kd of 12.1 ± 2.1 nM.

B2 displayed an equilibrium dissociation constant (Kd) of 22 ± 5 nM.

Turning to B3, the Kd turned out to be 9.1 ± 1.6 nM.

In turn, B4 showed a dissociation constant Kd of 13.2 ± 2.3 nM.

B5 returned a Kd of 6.9 ± 1 nM.

Consider B6, for which the Kd was found to be 1.16 ± 0.21 nM.

On to B7, for which binding was put at a Kd of 16.8 ± 2.8 nM.

B8: the Kd was found to be 13.5 ± 2.6 nM.

Regarding B9, the Kd is 16 ± 5 nM.

On to B10, for which the Kd came to 11.8 ± 1.6 nM.

The molecule B11 displayed a Kd of 15.3 ± 2.1 nM.

In turn, B12 had a dissociation constant (Kd) of approximately 70 nM.

On to B13, for which binding was characterised by a dissociation constant (Kd) of 6.3 ± 0.5 nM.
